Assay results from publication PMC5267338.
pKd: −log10 of the molar value.

Experiments:
[1] = biological target: human mitochondrial ferredoxin 1 (FDX1), holo form with [2Fe-2S] cluster (H. sapiens); experiment: ITC
[2] = biological target: human mitochondrial ferredoxin 2 (FDX2), holo form with [2Fe-2S] cluster (H. sapiens) (UniProt Q6P4F2); experiment: ITC
Sequence of human mitochondrial ferredoxin 2 (FDX2), holo form with [2Fe-2S] cluster (H. sapiens) (Q6P4F2 53-183): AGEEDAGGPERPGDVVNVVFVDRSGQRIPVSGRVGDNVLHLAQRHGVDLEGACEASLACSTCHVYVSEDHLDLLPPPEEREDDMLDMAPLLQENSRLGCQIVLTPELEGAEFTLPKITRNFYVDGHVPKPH

Sequence of [Acp]2:[ISD11]2:[NFS1]2 complex (cysteine desulfurase complex) (Q9Y697 53-457): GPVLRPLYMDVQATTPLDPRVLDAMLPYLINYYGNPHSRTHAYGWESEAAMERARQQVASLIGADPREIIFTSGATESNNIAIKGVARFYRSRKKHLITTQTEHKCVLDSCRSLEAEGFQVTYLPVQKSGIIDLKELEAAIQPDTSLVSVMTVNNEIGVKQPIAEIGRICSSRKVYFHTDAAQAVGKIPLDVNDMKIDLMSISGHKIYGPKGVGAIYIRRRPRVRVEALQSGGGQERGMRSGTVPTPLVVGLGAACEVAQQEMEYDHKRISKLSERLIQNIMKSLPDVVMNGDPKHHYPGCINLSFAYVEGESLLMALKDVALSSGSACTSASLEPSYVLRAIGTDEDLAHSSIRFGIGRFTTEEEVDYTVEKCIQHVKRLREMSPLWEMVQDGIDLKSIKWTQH
Sequence of [Acp]2:[ISD11]2:[NFS1]2 complex (cysteine desulfurase complex) (Q9HD34 whole entry): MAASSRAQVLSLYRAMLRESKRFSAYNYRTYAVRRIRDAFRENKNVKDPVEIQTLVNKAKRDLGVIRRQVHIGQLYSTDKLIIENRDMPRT
Sequence of [Acp]2:[ISD11]2:[NFS1]2 complex (cysteine desulfurase complex) (P0A6A8 2-78): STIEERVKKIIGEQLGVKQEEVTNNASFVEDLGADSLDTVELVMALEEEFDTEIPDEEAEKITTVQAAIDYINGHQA

pKd [1]: 4.38
pKd [2]: 4.83
Substance: [Acp]2:[ISD11]2:[NFS1]2 complex (cysteine desulfurase complex) (from UniProt Q9Y697 53-457; Q9HD34 1-91; P0A6A8 2-78)
